# Experimental data reported in US20220372155A1 (LYVGEN BIOPHARMA, published 2022).
# Target: T1, human CD40 expressed on CHO cells (human, UniProt P25942 21-277)
# T1 construct: whole, on cells; also used for the reporter cells over-expressing human CD40; also called cellular CD40; CHO-CD40 cells
# Assay: FACS, CHO cells
# T1 sequence (P25942 21-277): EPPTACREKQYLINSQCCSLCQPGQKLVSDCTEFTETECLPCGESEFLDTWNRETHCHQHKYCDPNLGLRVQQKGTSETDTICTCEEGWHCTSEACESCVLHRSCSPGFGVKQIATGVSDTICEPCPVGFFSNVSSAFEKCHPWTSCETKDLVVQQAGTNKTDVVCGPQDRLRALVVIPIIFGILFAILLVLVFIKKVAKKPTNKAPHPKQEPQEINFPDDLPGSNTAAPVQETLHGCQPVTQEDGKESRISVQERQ
row,binding result,Binder
1,binds,"TM553 (antibody, human IgG2, kappa, VH-2/IgG2, VL-1/kappa) heavy: QVQLVESGGGLVQPGGSLKLSCATSGFNFNDSFMNWVRQASGKGLEWVGQIRNKNYNYATYYTESLEGRVTISRDDSKNTAYLQMNSLKTEDTAVYYCTSYYYDGFADYFDYWGQGTTVTVSSASTKGPSVFPLAPCSRSTSESTAALGCLVKDYFPEPVTVSWNSGALTSGVHTFPAVLQSSGLYSLSSVVTVPSSNFGTQTYTCNVDHKPSNTKVDKTVERKCCVECPPCPAPPVAGPSVFLFPPKPKDTLMISRTPEVTCVVVDVSHEDPEVQFNWYVDGVEVHNAKTKPREEQFNSTFRVVSVLTVVHQDWLNGKEYKCKVSNKGLPAPIEKTISKTKGQPREPQVYTLPPSREEMTKNQVSLTCLVKGFYPSDIAVEWESNGQPENNYKTTPPMLDSDGSFFLYSKLTVDKSRWQQGNVFSCSVMHEALHNHYTQKSLSLSPG light: DIQMTQSPSSLSASVGDRVTITCKASQNIYIYLNWYQQKPGKAPKLLIYNTNNLQTGVPSRFSGSGSGTDFTLTISSLQPEDFATYYCLQHSSRRTFGGGTKVEIKRTVAAPSVFIFPPSDEQLKSGTASVVCLLNNFYPREAKVQWKVDNALQSGNSQESVTEQDSKDSTYSLSSTLTLSKADYEKHKVYACEVTHQGLSSPVTKSFNRGEC"
2,binds,"LP3773 (antibody, human IgG1, kappa, VH-2/IgG1mut, VL-1/kappa) heavy: QVQLVESGGGLVQPGGSLKLSCATSGFNFNDSFMNWVRQASGKGLEWVGQIRNKNYNYATYYTESLEGRVTISRDDSKNTAYLQMNSLKTEDTAVYYCTSYYYDGFADYFDYWGQGTTVTVSSASTKGPSVFPLAPSSKSTSGGTAALGCLVKDYFPEPVTVSWNSGALTSGVHTFPAVLQSSGLYSLSSVVTVPSSSLGTQTYICNVNHKPSNTKVDKKVEPKSCDKTHTCPPCPAPELLGPSVFLFPPKPKDTLMISRTPEVTCVVVDVEHEDPEVKFNWYVDGVEVHNAKTKPREEQYNSTYRVVSVLTVLHQDWLNGKEYKCKVSNKALPAPIEKTISKAKGQPREPQVYTLPPSREEMTKNQVSLTCLVKGFYPSDIAVEWESNGQPENNYKTTPPVLDSDGSFFLYSKLTVDKSRWQQGNVFSCSVMHEALHNHYTQKSLSLSPG light: DIQMTQSPSSLSASVGDRVTITCKASQNIYIYLNWYQQKPGKAPKLLIYNTNNLQTGVPSRFSGSGSGTDFTLTISSLQPEDFATYYCLQHSSRRTFGGGTKVEIKRTVAAPSVFIFPPSDEQLKSGTASVVCLLNNFYPREAKVQWKVDNALQSGNSQESVTEQDSKDSTYSLSSTLTLSKADYEKHKVYACEVTHQGLSSPVTKSFNRGEC"
3,binds,"TM739 (antibody, human IgG1, kappa, V domains shown, VH-2A/IgG1mut, VL-1/kappa) VH: QVQLVESGGGLVQPGGSLKLSCATSGFNFNDAFMNWVRQASGKGLEWVGQIRNKNYNYATYYTESLEGRVTISRDDSKNTAYLQMNSLKTEDTAVYYCTSYYYDGFADYFDYWGQGTTVTVSS VL: DIQMTQSPSSLSASVGDRVTITCKASQNIYIYLNWYQQKPGKAPKLLIYNTNNLQTGVPSRFSGSGSGTDFTLTISSLQPEDFATYYCLQHSSRRTFGGGTKVEIKR"
4,binds,"TM550 (antibody, human IgG2, kappa, V domains shown, CDR grafted humanized LYV377) VH: EVQLVESGGGLVQPGGSLKLSCAASGFNFNDSFMNWVRQASGKGLEWVGQIRNKNYNYATYYTESLEGRFTISRDDSKNTAYLQMNSLKTEDTAVYYCTRYYYDGFADYFDYWGQGTTVTVSS VL: DIQMTQSPSSLSASVGDRVTITCKASQNIYIYLNWYQQKPGKAPKLLIYNTNNLQTGVPSRFSGSGSGTDFTLTISSLQPEDFATYYCLQHSSRRTFGGGTKVEIKR"
5,binds,"TM740 (antibody, human IgG1, kappa, VH-2Y/IgG1mut, VL-1/kappa) heavy: QVQLVESGGGLVQPGGSLKLSCATSGFNFNDYFMNWVRQASGKGLEWVGQIRNKNYNYATYYTESLEGRVTISRDDSKNTAYLQMNSLKTEDTAVYYCTSYYYDGFADYFDYWGQGTTVTVSSASTKGPSVFPLAPSSKSTSGGTAALGCLVKDYFPEPVTVSWNSGALTSGVHTFPAVLQSSGLYSLSSVVTVPSSSLGTQTYICNVNHKPSNTKVDKKVEPKSCDKTHTCPPCPAPELLGPSVFLFPPKPKDTLMISRTPEVTCVVVDVEHEDPEVKFNWYVDGVEVHNAKTKPREEQYNSTYRVVSVLTVLHQDWLNGKEYKCKVSNKALPAPIEKTISKAKGQPREPQVYTLPPSREEMTKNQVSLTCLVKGFYPSDIAVEWESNGQPENNYKTTPPVLDSDGSFFLYSKLTVDKSRWQQGNVFSCSVMHEALHNHYTQKSLSLSPG light: DIQMTQSPSSLSASVGDRVTITCKASQNIYIYLNWYQQKPGKAPKLLIYNTNNLQTGVPSRFSGSGSGTDFTLTISSLQPEDFATYYCLQHSSRRTFGGGTKVEIKRTVAAPSVFIFPPSDEQLKSGTASVVCLLNNFYPREAKVQWKVDNALQSGNSQESVTEQDSKDSTYSLSSTLTLSKADYEKHKVYACEVTHQGLSSPVTKSFNRGEC"
6,binds,"TM738 (antibody, human IgG1, kappa, V domains shown, VH-2Q/IgG1mut, VL-1/kappa) VH: QVQLVESGGGLVQPGGSLKLSCATSGFNFQDSFMNWVRQASGKGLEWVGQIRNKNYNYATYYTESLEGRVTISRDDSKNTAYLQMNSLKTEDTAVYYCTSYYYDGFADYFDYWGQGTTVTVSS VL: DIQMTQSPSSLSASVGDRVTITCKASQNIYIYLNWYQQKPGKAPKLLIYNTNNLQTGVPSRFSGSGSGTDFTLTISSLQPEDFATYYCLQHSSRRTFGGGTKVEIKR"
7,binds,"Ly181 (antibody, human IgG2, kappa, VH-2Y/IgG2, VL-1/kappa) heavy: QVQLVESGGGLVQPGGSLKLSCATSGFNFNDYFMNWVRQASGKGLEWVGQIRNKNYNYATYYTESLEGRVTISRDDSKNTAYLQMNSLKTEDTAVYYCTSYYYDGFADYFDYWGQGTTVTVSSASTKGPSVFPLAPCSRSTSESTAALGCLVKDYFPEPVTVSWNSGALTSGVHTFPAVLQSSGLYSLSSVVTVPSSNFGTQTYTCNVDHKPSNTKVDKTVERKCCVECPPCPAPPVAGPSVFLFPPKPKDTLMISRTPEVTCVVVDVSHEDPEVQFNWYVDGVEVHNAKTKPREEQFNSTFRVVSVLTVVHQDWLNGKEYKCKVSNKGLPAPIEKTISKTKGQPREPQVYTLPPSREEMTKNQVSLTCLVKGFYPSDIAVEWESNGQPENNYKTTPPMLDSDGSFFLYSKLTVDKSRWQQGNVFSCSVMHEALHNHYTQKSLSLSPG light: DIQMTQSPSSLSASVGDRVTITCKASQNIYIYLNWYQQKPGKAPKLLIYNTNNLQTGVPSRFSGSGSGTDFTLTISSLQPEDFATYYCLQHSSRRTFGGGTKVEIKRTVAAPSVFIFPPSDEQLKSGTASVVCLLNNFYPREAKVQWKVDNALQSGNSQESVTEQDSKDSTYSLSSTLTLSKADYEKHKVYACEVTHQGLSSPVTKSFNRGEC"
8,binds,"TM378 (antibody, human IgG4 S228P, kappa, V domains shown, chimeric LYV378, human IgG4; also called chimeric counterpart TM378) VH: EVHLVESGGGLVQPGRSLKLSCAASGFTFTNYGLHWIRQAPTKGLEWVASISPSGGVTYYRDSVKGRFTISRDNGKTTLHLQMDSLRSEDTATYYCALPFLGWGGANWIAHWGQGTLVTVSS VL: DIQMTQSPASLSASLGETVSIECLASEDISNDLAWYQQKSGKSPQLLIYFVDRLLDGVPSRFSGSGSGTRHSLKISGMQPEDEADYFCQQSYKYPPTFGGGTKLELKR"
9,binds,"TM559 (antibody, human IgG2, kappa, LYV378_VH-1/IgG2, LYV378_VL-1/kappa) heavy: EVQLVESGGGLVQPGGSLRLSCAASGFTFTNYGLHWVRQAPGKGLEWVSSISPSGGVTYYRDSVKGRFTISRDNSKNTLYLQMNSLRAEDTAVYYCAKPFLGWGGANWIAHWGQGTLVTVSSASTKGPSVFPLAPCSRSTSESTAALGCLVKDYFPEPVTVSWNSGALTSGVHTFPAVLQSSGLYSLSSVVTVPSSNFGTQTYTCNVDHKPSNTKVDKTVERKCCVECPPCPAPPVAGPSVFLFPPKPKDTLMISRTPEVTCVVVDVSHEDPEVQFNWYVDGVEVHNAKTKPREEQFNSTFRVVSVLTVVHQDWLNGKEYKCKVSNKGLPAPIEKTISKTKGQPREPQVYTLPPSREEMTKNQVSLTCLVKGFYPSDIAVEWESNGQPENNYKTTPPMLDSDGSFFLYSKLTVDKSRWQQGNVFSCSVMHEALHNHYTQKSLSLSPG light: DIQMTQSPSSLSASVGDRVTITCLASEDISNDLAWYQQKPGKAPKLLIYFVDRLLDGVPSRFSGSGSGTDFTLTISSLQPEDFATYYCQQSYKYPPTFGQGTKLEIKRTVAAPSVFIFPPSDEQLKSGTASVVCLLNNFYPREAKVQWKVDNALQSGNSQESVTEQDSKDSTYSLSSTLTLSKADYEKHKVYACEVTHQGLSSPVTKSFNRGEC"
10,binds,"LP3783 (antibody, human IgG1, kappa, LYV378_VH-1/IgG1mut, LYV378_VL-1/kappa; also called TM3783; Ly3783) heavy: EVQLVESGGGLVQPGGSLRLSCAASGFTFTNYGLHWVRQAPGKGLEWVSSISPSGGVTYYRDSVKGRFTISRDNSKNTLYLQMNSLRAEDTAVYYCAKPFLGWGGANWIAHWGQGTLVTVSSASTKGPSVFPLAPSSKSTSGGTAALGCLVKDYFPEPVTVSWNSGALTSGVHTFPAVLQSSGLYSLSSVVTVPSSSLGTQTYICNVNHKPSNTKVDKKVEPKSCDKTHTCPPCPAPELLGPSVFLFPPKPKDTLMISRTPEVTCVVVDVEHEDPEVKFNWYVDGVEVHNAKTKPREEQYNSTYRVVSVLTVLHQDWLNGKEYKCKVSNKALPAPIEKTISKAKGQPREPQVYTLPPSREEMTKNQVSLTCLVKGFYPSDIAVEWESNGQPENNYKTTPPVLDSDGSFFLYSKLTVDKSRWQQGNVFSCSVMHEALHNHYTQKSLSLSPG light: DIQMTQSPSSLSASVGDRVTITCLASEDISNDLAWYQQKPGKAPKLLIYFVDRLLDGVPSRFSGSGSGTDFTLTISSLQPEDFATYYCQQSYKYPPTFGQGTKLEIKRTVAAPSVFIFPPSDEQLKSGTASVVCLLNNFYPREAKVQWKVDNALQSGNSQESVTEQDSKDSTYSLSSTLTLSKADYEKHKVYACEVTHQGLSSPVTKSFNRGEC"
11,binds,"LP3781 (antibody, human IgG1, kappa, LYV378_VH-1/IgG1, LYV378_VL-1/kappa; also called TM3781) heavy: not shown light: DIQMTQSPSSLSASVGDRVTITCLASEDISNDLAWYQQKPGKAPKLLIYFVDRLLDGVPSRFSGSGSGTDFTLTISSLQPEDFATYYCQQSYKYPPTFGQGTKLEIKRTVAAPSVFIFPPSDEQLKSGTASVVCLLNNFYPREAKVQWKVDNALQSGNSQESVTEQDSKDSTYSLSSTLTLSKADYEKHKVYACEVTHQGLSSPVTKSFNRGEC"
12,binds,"LP3782 (antibody, human IgG4 S228P, kappa, LYV378_VH-1/IgG4, LYV378_VL-1/kappa; also called TM3782) heavy: not shown light: DIQMTQSPSSLSASVGDRVTITCLASEDISNDLAWYQQKPGKAPKLLIYFVDRLLDGVPSRFSGSGSGTDFTLTISSLQPEDFATYYCQQSYKYPPTFGQGTKLEIKRTVAAPSVFIFPPSDEQLKSGTASVVCLLNNFYPREAKVQWKVDNALQSGNSQESVTEQDSKDSTYSLSSTLTLSKADYEKHKVYACEVTHQGLSSPVTKSFNRGEC"
